The results in this text go back to article doi:10.1101/2025.03.25.645380, “Extracellular Nanobody Screening using Conformationally Stable GPCR” (bioRxiv, 2025).

Test [1] addresses T1, M1R-G11CT (Homo sapiens (from template PDB 6OIJ), UniProt P11229, chimera).
T1 construct: M1 muscarinic acetylcholine receptor (M1R), N-terminal part through TM5 up to the fusion site T215 (5.65); de novo designed fusion protein (RFdiffusion, ProteinMPNN, AlphaFold2) put between T215 and A364 in place of ICL3; M1 muscarinic acetylcholine receptor (M1R), from the fusion site A364 (6.34) in TM6 to the C-terminus of the receptor; 2×GGSGG linker between the C-terminus of the receptor and …
As to the kind of experiment: flow cytometry on cells; nanobody displayed on yeast, single colonies; stained with 10 nM fluorescence-labeled purified FLAG-tagged receptor (atropine-bound M1R-Clip1 or iperoxo-bound M1R-G11CT), Alexa Fluor-647 anti-FLAG and Alexa Fluor-488 anti-HA; selection buffer 20 mM HEPES pH 7.5, 100 mM NaCl, 0.05% MNG, 0.005% CHS, 2 mM CaCl2, 0.1% BSA, 0.2% maltose. As to conditions: one partner purified. For orientation: Flow cytometry measures light scatter and fluorescence of single cells or particles in a stream.

For test [2], the target named is T1, M1R-G11CT. As to the kind of experiment: cryo-EM structure; purified M1R-nanobody complexes on Au Quantifoil grids; Nb1B4 with M1R-G11CT and iperoxo, NbA12 with M1R-Clip1 and atropine. As to conditions: both partners purified.
Target sequence in this assay (P11229 whole entry, stated change not applied, the tested form may be a part): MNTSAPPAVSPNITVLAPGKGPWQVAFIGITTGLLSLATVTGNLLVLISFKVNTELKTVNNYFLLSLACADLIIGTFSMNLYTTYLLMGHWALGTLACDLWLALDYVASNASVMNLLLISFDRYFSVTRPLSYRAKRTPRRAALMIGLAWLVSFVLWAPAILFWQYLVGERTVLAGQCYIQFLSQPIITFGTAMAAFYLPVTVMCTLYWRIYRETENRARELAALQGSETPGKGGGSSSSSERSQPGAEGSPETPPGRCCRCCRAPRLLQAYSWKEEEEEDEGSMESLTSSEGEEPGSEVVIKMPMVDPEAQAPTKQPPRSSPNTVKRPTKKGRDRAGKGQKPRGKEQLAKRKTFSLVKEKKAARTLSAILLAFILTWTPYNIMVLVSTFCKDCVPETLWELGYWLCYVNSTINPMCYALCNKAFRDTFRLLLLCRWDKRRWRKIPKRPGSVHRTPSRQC

B1: Nb1B4 displayed on yeast (VHH)
VHH: QVQLQESGGGLVQAGGSLRLSCAASGSIFYGYYMGWYRQAPGKEREFVATINYGASTNYADSVKGRFTISRDNAKNTVYLQMNSLKPEDTAVYYCAVRRVYVYVQRYYHYYWGQGTQVTVSS
notes: Yeast display fusion; also called active-state selective nanobody
As to B1, the binding result in the test with M1R-G11CT [1] is on record as “binds”.

B2: Nb1B4, purified (VHH)
VHH: QVQLQESGGGLVQAGGSLRLSCAASGSIFYGYYMGWYRQAPGKEREFVATINYGASTNYADSVKGRFTISRDNAKNTVYLQMNSLKPEDTAVYYCAVRRVYVYVQRYYHYYWGQGTQVTVSS
notes: also called active-state selective nanobody; source: E. coli BL21(DE3) periplasm or HEK293F supernatant, purified (Ni-NTA, SEC)
Consider B2, for which the binding result in the test with M1R-G11CT [2] is given as “binds”.
